In US12590158 (XIYUAN ANJIAN MEDICINE SHANGHAI, dated 2026):
Like-named read-outs stand apart in the source and are kept apart here.

Legend:
[1] = target: T1, full-length human TrkA expressed on cells (human, UniProt P04629 33-796); test: cell-based or functional assay
[2] = target: T1, full-length human TrkA expressed on …; test: cell-based or functional assay; remark: listed apart in the source
[3] = target: T1, full-length human TrkA expressed on …; test: cell-based or functional assay; remark: listed apart in the source
[4] = target: fusion protein (fused to human Fc) containing only the portion of human TrkA extracellular region that binds NGF (TrkA 192-402) (ACROBiosystems TRA-H5258) (human) (UniProt P04629); test: ELISA, coated human TrkA (192-402)-hFc
Sequence of fusion protein (fused to human Fc) containing only the portion of human TrkA extracellular region that binds NGF (TrkA 192-402) (ACROBiosystems TRA-H5258) (human) (P04629 192-402 limits assumed, form in doubt): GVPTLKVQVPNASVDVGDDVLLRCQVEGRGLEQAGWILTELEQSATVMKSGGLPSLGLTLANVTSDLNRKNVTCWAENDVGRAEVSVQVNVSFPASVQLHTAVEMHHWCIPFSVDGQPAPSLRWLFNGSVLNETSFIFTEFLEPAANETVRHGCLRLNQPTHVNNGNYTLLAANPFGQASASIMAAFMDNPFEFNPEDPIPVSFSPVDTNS

[5] = target: T2, TrkA extracellular region (33-417) protein comprising human Fc (ACROBiosystems TRA-H5259) (human, UniProt P04629 33-417); test: ELISA, coated human TrkA (33-417)-hFc, anti-mouse Fc-HRP
T2 construct: range 33-417; Bought fusion protein; also called human TrkA (33-417); human TrkA extracellular region
T2 sequence (P04629 33-417 limits assumed): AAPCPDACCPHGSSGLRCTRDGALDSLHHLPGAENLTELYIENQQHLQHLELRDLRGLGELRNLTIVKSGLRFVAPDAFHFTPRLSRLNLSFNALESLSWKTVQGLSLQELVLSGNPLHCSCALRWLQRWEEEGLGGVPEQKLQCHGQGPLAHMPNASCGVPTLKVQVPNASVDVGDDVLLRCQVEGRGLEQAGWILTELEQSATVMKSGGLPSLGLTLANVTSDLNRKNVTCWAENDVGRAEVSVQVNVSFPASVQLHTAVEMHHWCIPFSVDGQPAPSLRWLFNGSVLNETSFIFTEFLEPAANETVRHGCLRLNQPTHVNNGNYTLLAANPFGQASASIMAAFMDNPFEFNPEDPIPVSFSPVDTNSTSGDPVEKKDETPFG
Description: (§1) Example 2: ELISA Detection of the Binding of Murine Anti-TrkA Antibodies to Human TrkA The binding abilities of the anti-TrkA antibodies were detected by using a TrkA extracellular region (33-417) protein comprising human Fc (Beijing ACROBiosystems Co., Ltd., TRA-H5259). Each well of a 96-well microtiter plate was coated with 50 ng of human TrkA, washed and blocked, and then added with serially diluted antibodies, and incubated at room temperature for 1 hour. After washing three times, horseradish peroxidase-conjugated goat anti-mouse Fc antibody (Biolegend, 405306) was added and incubated at room temperature for 1 hour. After washing three time, tetramethylbenzidine (TMB, Biolegend, 421101) was added for color development. 1M HCl was used to terminate the color development, and the absorbance values were read at 450 nm with a microplate reader.

[6] = target: T3, rat TrkA extracellular region fusion protein (fused to human Fc) (Yiqiao Shenzhou 80243-R03H) (rat, UniProt P35739 33-418); test: ELISA, plate coated with rat TrkA extracellular region-hFc, HRP goat anti-mouse Fc detection
T3 construct: extracellular domain; Bought fusion protein
T3 sequence (P35739 33-418, stated change not applied): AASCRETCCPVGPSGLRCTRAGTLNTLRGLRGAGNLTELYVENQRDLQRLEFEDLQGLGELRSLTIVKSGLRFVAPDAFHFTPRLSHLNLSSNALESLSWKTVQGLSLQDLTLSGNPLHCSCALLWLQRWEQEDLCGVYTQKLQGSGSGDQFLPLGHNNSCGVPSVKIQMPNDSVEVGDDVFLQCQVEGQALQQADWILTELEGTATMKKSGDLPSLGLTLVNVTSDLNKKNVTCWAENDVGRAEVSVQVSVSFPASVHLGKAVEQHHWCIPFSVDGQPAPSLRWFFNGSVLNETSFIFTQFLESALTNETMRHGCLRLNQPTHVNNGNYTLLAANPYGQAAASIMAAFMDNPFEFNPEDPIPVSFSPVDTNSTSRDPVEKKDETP
Description: as §1
(§2) In addition, the species cross-reactivities of anti-TrkA antibodies were detected with monkey TrkA (Hangzhou Haoyang Biotechnology Co., Ltd., HSP037-05), rat TrkA (Beijing Yiqiao Shenzhou Technology Co., Ltd., 80243-R03H), mouse TrkA (Beijing Yiqiao Shenzhou Technology Co., Ltd., 51103-M02H) extracellular region fusion protein (fused to human Fc).

[7] = target: T2, TrkA extracellular region (33-417) …; test: competition ELISA, coated TrkA (33-417)-hFc, antibody titrated, competitor biotin-labeled human NGF
Description: Each well of a 96-well microtiter plate was coated with 50 ng of TrkA extracellular region (33-417) protein fused to human Fc, washed three times and blocked with 3% BSA for 1 hour. […] Each well was added with 100 μl and incubated at room temperature for 30 minutes. […] Streptavidin-labeled horseradish peroxidase (Streptavidin-HRP, Biolegend, 405210) was added and incubated for 0.5 hours. After washing three times, TMB was added to the plate, and the absorbance at 450 nm was read by a microplate reader after the color development was terminated.

[8] = target: T2, TrkA extracellular region (33-417) …; test: BLI (ForteBio Octet Red96), TrkA (33-417)-hFc captured on anti-human Fc sensor, antibody in solution
Text: Example 3: Affinity Assay of Murine Anti-TrkA Antibodies Binding to Human TrkA The affinities of the antibodies were detected with Biomolecular Interaction Detection Platform (ForteBio Octet Red96 (PALL)).
Human TrkA extracellular region (33-417) protein containing human Fc tag was fixed onto a chip by using an anti-human Fc capture sensor (Fortebio, 18-5088), and then bound to gradient concentrations of anti-TrkA antibody.

[9] = target: T4, mouse TrkA extracellular region fusion protein (fused to human Fc) (Yiqiao Shenzhou 51103-M02H) (mouse, UniProt Q3UFB7 34-420); test: ELISA, plate coated with mouse TrkA extracellular region-hFc, HRP goat anti-mouse Fc detection
T4 construct: extracellular domain; Bought fusion protein
T4 sequence (Q3UFB7 34-420, stated change not applied): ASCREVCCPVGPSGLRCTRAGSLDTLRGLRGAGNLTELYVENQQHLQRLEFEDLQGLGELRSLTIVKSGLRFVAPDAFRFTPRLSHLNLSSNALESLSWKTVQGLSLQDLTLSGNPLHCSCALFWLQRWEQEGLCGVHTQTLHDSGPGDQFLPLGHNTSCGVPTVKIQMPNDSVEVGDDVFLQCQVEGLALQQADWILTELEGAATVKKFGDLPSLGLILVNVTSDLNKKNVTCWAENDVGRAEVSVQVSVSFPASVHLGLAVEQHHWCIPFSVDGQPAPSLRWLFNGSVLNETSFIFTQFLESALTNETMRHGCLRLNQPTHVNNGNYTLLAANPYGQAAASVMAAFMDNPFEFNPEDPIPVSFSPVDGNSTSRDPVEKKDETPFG
Description: as §1, §2

[10] = target: T5, human TrkB extracellular region protein (Yiqiao Shenzhou 10047-H03H) (human, UniProt Q16620 32-430); test: ELISA, plate coated with human TrkB extracellular region protein, HRP goat anti-mouse Fc detection
T5 construct: extracellular domain; Bought protein
T5 sequence (Q16620 32-430): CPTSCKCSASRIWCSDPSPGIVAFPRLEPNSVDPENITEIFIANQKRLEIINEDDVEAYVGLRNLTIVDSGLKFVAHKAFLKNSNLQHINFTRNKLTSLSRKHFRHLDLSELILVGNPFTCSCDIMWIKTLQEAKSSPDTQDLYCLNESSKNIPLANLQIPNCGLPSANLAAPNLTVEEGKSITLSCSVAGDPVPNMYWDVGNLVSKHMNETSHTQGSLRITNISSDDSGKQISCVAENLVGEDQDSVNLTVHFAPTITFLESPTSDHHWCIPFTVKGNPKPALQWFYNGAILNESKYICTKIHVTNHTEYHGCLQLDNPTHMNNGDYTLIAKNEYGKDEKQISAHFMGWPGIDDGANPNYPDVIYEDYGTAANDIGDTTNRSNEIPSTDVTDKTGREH
Description: as §1
(§3) Example 7: Detection of the Binding of Murine Anti-TrkA Antibodies to TrkA Proteins of the Same Family Each well of a 96-well microtiter plate was coated with 50 ng of human TrkA extracellular region protein, human TrkB extracellular region protein (Beijing Yiqiao Shenzhou Technology Co., Ltd., 10047-H03H), human TrkC extracellular region protein (Beijing Yiqiao Shenzhou Technology Co., Ltd., 10048-H03H). The bindings of the anti-TrkA antibodies to human TrkA and the two proteins of the same family were detected according to the method described in Example 2.

[11] = target: T6, human TrkC extracellular region protein (Yiqiao Shenzhou 10048-H03H) (human, UniProt Q16288 32-429); test: ELISA, plate coated with human TrkC extracellular region protein, HRP goat anti-mouse Fc detection
T6 construct: extracellular domain; Bought protein
Description: as §1, §3

[12] = target: T1, full-length human TrkA expressed on …; test: cell-based or functional assay; remark: listed apart in the source
[13] = target: T1, full-length human TrkA expressed on …; test: cell-based or functional assay; remark: listed apart in the source
[14] = target: T1, full-length human TrkA expressed on …; test: flow cytometry titration on TrkA/CHO cells
Description: (§4) The cells were cultured according to the manufacturer's instruction. The cells were harvested in the logarithmic growth phase, re-suspended in flow buffer (PBS+2% FBS, pH 7.4), and added into 96-well plate, 10^5 cells per well (50 µl). 50 µl of 100 µg/mL humanized anti-TrkA antibody was added, incubated at room temperature for 60 min, and centrifuged at 1200 rpm. The supernatant was discarded and the cells were washed 3 times. FITC-labeled goat anti-human Fc antibody (Abeam, ab97224) was diluted to 5 µg/mL with flow buffer and used to re-suspend the cells, incubated at room temperature for 30 min in the dark, centrifuged, and the supernatant was discarded. After washing 3 times, the cells were re-suspended with 7AAD solution (Biolegend, 420403), incubated for 10 min at room temperature, and the binding of the antibody was detected with a flow cytometer (BioRad, ZE5).
The binding curve of the humanized anti-TrkA antibodies and TrkA/CHO cells was detected with the same flow cytometry.

[15] = target: T7, human TrkA extracellular region (33-417) protein containing mouse Fc (human, UniProt P04629 33-417); test: ELISA, coated human TrkA (33-417)-mouse Fc, anti-human IgG-HRP
T7 construct: range 33-417
T7 sequence (P04629 33-417 limits assumed): as the sequence (P04629 33-417 limits assumed) above
Description: Each well of a 96-well microtiter plate was coated with 50 ng of human TrkA, washed and blocked, then added with serially diluted humanized antibodies, and incubated for 1 hour at room temperature. After washing three times, horseradish peroxidase-conjugated goat anti-human IgG antibody (ThermoFisher, A18817) was added and reacted at room temperature for 1 hour. After washing three time, tetramethylbenzidine (TMB, Biolegend) was added for color development. 1M HCl was used to terminate the color development, and the absorbance values were read at 450 nm with a microplate reader.

[16] = target: T8, human TrkB expressed on CHO cells (TrkB/CHO, ThermoFisher K1491) (human, UniProt Q16620 32-822); test: flow cytometry on TrkB/CHO cells, FITC goat anti-human Fc
T8 construct: whole, on cells
T8 sequence (Q16620 32-822): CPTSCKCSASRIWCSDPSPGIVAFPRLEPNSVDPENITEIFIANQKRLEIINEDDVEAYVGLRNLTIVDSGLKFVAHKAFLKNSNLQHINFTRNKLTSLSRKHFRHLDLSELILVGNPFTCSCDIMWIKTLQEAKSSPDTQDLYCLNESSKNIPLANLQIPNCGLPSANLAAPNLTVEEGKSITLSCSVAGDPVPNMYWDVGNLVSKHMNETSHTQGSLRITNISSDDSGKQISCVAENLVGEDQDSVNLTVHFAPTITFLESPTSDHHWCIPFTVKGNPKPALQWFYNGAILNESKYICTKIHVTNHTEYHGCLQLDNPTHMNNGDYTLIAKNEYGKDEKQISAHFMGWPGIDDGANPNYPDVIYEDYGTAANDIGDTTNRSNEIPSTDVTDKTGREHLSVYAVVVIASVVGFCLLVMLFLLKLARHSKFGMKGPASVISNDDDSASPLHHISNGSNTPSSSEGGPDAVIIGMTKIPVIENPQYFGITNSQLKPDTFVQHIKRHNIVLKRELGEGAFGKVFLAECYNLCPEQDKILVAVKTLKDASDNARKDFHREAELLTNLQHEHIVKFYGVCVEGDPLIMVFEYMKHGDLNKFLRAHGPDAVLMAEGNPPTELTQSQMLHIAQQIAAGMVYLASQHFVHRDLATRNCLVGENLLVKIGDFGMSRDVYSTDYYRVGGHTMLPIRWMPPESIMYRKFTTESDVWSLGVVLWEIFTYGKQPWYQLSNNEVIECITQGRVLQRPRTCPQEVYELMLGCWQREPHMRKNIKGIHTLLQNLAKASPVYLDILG
Description: (§5) CHO-K1 was used as a negative control. The binding of the humanized antibodies to the four cell lines was detected by flow cytometry.
as §4

[17] = target: T9, human TrkC expressed on CHO cells (TrkC/CHO, ThermoFisher K1515) (human, UniProt Q16288 32-839); test: flow cytometry on TrkC/CHO cells, FITC goat anti-human Fc
T9 construct: whole, on cells
T9 sequence (Q16288 32-839): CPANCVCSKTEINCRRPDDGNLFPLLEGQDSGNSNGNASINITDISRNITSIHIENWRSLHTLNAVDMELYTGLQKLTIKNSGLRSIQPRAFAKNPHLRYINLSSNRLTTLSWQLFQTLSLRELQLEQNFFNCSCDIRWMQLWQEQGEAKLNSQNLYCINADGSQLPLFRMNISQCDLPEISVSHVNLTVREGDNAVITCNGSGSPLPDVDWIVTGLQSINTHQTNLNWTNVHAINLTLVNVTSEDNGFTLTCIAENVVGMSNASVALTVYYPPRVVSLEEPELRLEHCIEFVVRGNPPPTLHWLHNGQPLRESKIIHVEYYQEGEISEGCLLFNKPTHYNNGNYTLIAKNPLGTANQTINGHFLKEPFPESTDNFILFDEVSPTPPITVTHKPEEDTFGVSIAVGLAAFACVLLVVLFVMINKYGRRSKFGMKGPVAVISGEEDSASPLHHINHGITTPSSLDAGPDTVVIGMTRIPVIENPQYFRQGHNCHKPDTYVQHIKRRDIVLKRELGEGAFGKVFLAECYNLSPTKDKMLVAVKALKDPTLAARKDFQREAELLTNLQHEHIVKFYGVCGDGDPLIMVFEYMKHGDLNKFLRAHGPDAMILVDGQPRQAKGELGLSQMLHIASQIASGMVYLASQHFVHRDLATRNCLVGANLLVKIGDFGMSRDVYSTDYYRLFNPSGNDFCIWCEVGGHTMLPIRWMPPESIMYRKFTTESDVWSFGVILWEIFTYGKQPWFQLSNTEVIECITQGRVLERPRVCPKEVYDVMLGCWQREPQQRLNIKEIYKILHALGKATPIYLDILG
Description: as §5, §4

T1 sequence (P04629 33-796): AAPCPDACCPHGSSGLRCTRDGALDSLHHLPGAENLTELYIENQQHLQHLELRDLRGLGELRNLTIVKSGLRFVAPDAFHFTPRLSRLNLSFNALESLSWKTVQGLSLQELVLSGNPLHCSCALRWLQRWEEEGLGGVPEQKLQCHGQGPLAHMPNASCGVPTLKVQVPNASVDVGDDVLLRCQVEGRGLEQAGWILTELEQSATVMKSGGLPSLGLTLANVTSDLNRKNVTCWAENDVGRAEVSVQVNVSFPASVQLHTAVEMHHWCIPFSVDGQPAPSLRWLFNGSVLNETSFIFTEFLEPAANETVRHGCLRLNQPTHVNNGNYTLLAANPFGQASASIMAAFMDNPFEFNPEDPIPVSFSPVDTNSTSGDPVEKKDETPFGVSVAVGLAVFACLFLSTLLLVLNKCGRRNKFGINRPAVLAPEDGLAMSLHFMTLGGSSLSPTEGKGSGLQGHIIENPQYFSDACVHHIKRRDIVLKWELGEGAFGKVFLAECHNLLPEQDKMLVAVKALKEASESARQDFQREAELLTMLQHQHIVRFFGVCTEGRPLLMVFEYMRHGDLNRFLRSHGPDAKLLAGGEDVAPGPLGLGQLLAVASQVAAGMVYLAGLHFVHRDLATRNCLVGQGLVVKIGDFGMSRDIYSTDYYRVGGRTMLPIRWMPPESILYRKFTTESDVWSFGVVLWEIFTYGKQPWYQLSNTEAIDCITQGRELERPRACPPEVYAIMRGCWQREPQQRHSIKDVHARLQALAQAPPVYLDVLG

B1: anti-TrkA antibody 40D6 (antibody, V domains shown)
VH: QVQLQQSGTELMKPGASVKISCKATGYTFSRYWIEWVKQRPGHGLEWIGEILPGRSSTNYNEKFKGKATFTADTSSNTAYMQLSSLTSEDSAVYYCTRVSQLHIYFDYWGQGTTVTVSS
VL: DIVMTQVVPSVPVTPGESVSISCRSSKSLLHSNGNTYLYWFQQRPGQSPQLLIYRMSNLASGVPDRFSGSGSGTAFTLRISRVEAEDVAFYYCMQHLEFPLTFGAGTKLELK
notes: Murine monoclonal antibody purified from hybridoma medium by protein G
- inhibition of NGF-induced TrkA/Ba/F3 cell proliferation at 2.5 µg/mL (16.67 nM) or higher [1]: 100%
- IC50 of inhibiting NGF-induced TF-1 cell proliferation [2]: 8.53 nM
- IC50 of inhibiting NGF-induced TrkA/Ba/F3 cell proliferation [3]: 1.8 nM
- EC50 [4]: 0.195 nM
- EC50 [5]: 0.202 nM
- binding result [6]: binds
- IC50 [7]: 2.28 nM
- Kd [8]: 27.1 pM
- koff [8]: 2.49e-05 s⁻¹
- kon [8]: 918000 M⁻¹ s⁻¹
- binding result [9]: binds
- binding result [10]: no binding (tested: 66.67 nM)
- binding result [11]: no binding (tested: 66.67 nM)

B2: human-mouse chimeric antibody 42F5-Chi (antibody, V domains shown)
VH: QVQLQQPGAELVKPGASVKLSCKSSGYTFTNYWMHWVRQRPGQGLEWIGEIYPNNGRVNYNEKFKNRATLTVDISSSTAYMQLSSLTSEDSAVYYCARSRYDPMEDWGQGTSVTVSS
VL: QVVLTQSPAIMSASPGEKVTMTCSASSSVGYMHWYQQKSGTSPKRWIYDTSKLASGVPTRFSGSGSGTSYSLTISSMEAEDAATYFCQQWSSIPLTFGSGTRLEIK
- IC50 of inhibiting NGF-induced TF-1 cell proliferation [12]: 1.55 nM
- IC50 of inhibiting NGF-induced TrkA/Ba/F3 cell proliferation [13]: 2.92 nM
- EC50 [14]: 0.49 nM
- EC50 [15]: 0.062 nM
- binding result [16]: no binding
- binding result [17]: no binding

B3: anti-TrkA antibody 42A11 (antibody, V domains shown)
VH: QVQLQQPGAELVKPGASVKLSCKASGYTFTNYWMHWVKQRPGQGLEWIGEIYPSNGRTNYNEKFKTKATLTVDKSSSTAYMHLSSLTSEDSAVYYCAGSRYDAMDFWGQGTSVTVSS
VL: QIVLTQSPAIMSASPGEKVTMTCSASSIISYMHWYQQKSGTSPKRWIYDTSKLASGVPARFSGSGSGTSYSLTISGMEAEDAATYYCHQWTSNPLTFGGGTKLELK
notes: as for B1
- inhibition of NGF-induced TrkA/Ba/F3 cell proliferation at 2.5 µg/mL (16.67 nM) or higher [1]: 100%
- IC50 of inhibiting NGF-induced TF-1 cell proliferation [2]: 1.46 nM
- IC50 of inhibiting NGF-induced TrkA/Ba/F3 cell proliferation [3]: 0.738 nM
- EC50 [4]: 0.234 nM
- EC50 [5]: 0.187 nM
- binding result [6]: binds
- IC50 [7]: 2.05 nM
- Kd [8]: 1.42 pM
- koff [8]: 1.26e-06 s⁻¹
- kon [8]: 889000 M⁻¹ s⁻¹
- binding result [9]: binds
- binding result [10]: no binding (tested: 66.67 nM)
- binding result [11]: no binding (tested: 66.67 nM)

B4: anti-TrkA antibody 42H6 (antibody, V domains shown)
VH: QVQLQQPGVELVKPGASVKLSCKTSGYTFTSYWMHWVKQRPGQGLEWIGEIYSSNGLTNYNEKFKNKATLTVDKSSSTAYMQLTSLTSEDSAIYYCARHWYVFLDHWGQGTTLTVSS
VL: QAVVTQESALTTSPGETVTLTCRSSTGAVTTSNHANWVQEKPDHLFTGLIGGINNRAPGVPARFSGSLIGDKAALTITGAQTEDEAIYFCALWYSNHWVFGGGTRLTVL
notes: as for B1
- inhibition of NGF-induced TrkA/Ba/F3 cell proliferation at 2.5 µg/mL (16.67 nM) or higher [1]: 100%
- IC50 of inhibiting NGF-induced TF-1 cell proliferation [2]: 3.58 nM
- IC50 of inhibiting NGF-induced TrkA/Ba/F3 cell proliferation [3]: 0.782 nM
- EC50 [4]: 0.175 nM
- EC50 [5]: 0.135 nM
- binding result [6]: binds
- IC50 [7]: 2.19 nM
- Kd [8]: 6.77 pM
- koff [8]: 9.91e-06 s⁻¹
- kon [8]: 1.47e+06 M⁻¹ s⁻¹
- binding result [9]: binds
- binding result [10]: no binding (tested: 66.67 nM)
- binding result [11]: no binding (tested: 66.67 nM)

B5: humanized anti-TrkA antibody 42F5-01 (antibody, V domains shown)
VH: QVQLVQSGAEVKKPGASVKVSCKSSGYTFTNYWMHWVRQAPGQGLEWMGEIYPNNGRVNYNEKFKNRVTMTVDISISTAYMELSRLRSDDTAVYYCARSRYDPMEDWGQGTTVTVSS
VL: DVQLTQSPSSLSASVGDRVTITCSASSSVGYMHWYQQKPGKAPKRLIYDTSKLASGVPSRFSGSGSGTDYTLTISSLQPEDFATYFCQQWSSIPLTFGQGTRLEIK
notes: VH grafted to human IgG4 heavy chain constant region, VL to human Kappa light chain constant region; also called 43F5-01 [sic]
- IC50 of inhibiting NGF-induced TF-1 cell proliferation [12]: 1.57 nM
- IC50 of inhibiting NGF-induced TrkA/Ba/F3 cell proliferation [13]: 2.97 nM
- EC50 [14]: 0.605 nM
- EC50 [15]: 0.061 nM
- binding result [16]: no binding
- binding result [17]: no binding

B6: humanized anti-TrkA antibody 42F5-05 (antibody, V domains shown)
VH: QVQLVQSGAEVKKPGASVKVSCKSSGYTFTNYWMHWVRQAPGQGLEWMGEIYPNNGRVNYNEKFKNRVTMTVDISISTAYMELSRLRSDDTAVYYCARSRYDPMEDWGQGTTVTVSS
VL: QVQLTQSPSSLSASVGDRVTITCSASSSVGYMHWYQQKPGKAPKRLIYDTSKLASGVPSRFSGSGSGTDYTLTISSLQPEDFATYFCQQWSSIPLTFGQGTRLEIK
notes: VH grafted to human IgG4 heavy chain constant region, VL to human Kappa light chain constant region
- IC50 of inhibiting NGF-induced TF-1 cell proliferation [12]: 1.48 nM
- IC50 of inhibiting NGF-induced TrkA/Ba/F3 cell proliferation [13]: 4.42 nM
- EC50 [14]: 0.68 nM
- EC50 [15]: 0.072 nM
- binding result [16]: no binding
- binding result [17]: no binding
